Target: Ded1-His6 (Saccharomyces cerevisiae? (paper says …, UniProt P06634 1-604))
Experiment: competition (magnetic tweezers displacement assay); 1 mM ATP; 10 nM Ded1; against 200 nM 5'ss-11 bp RNA; effective competitor; Magnetic tweezers, Fhold 7 pN, 10 nM Ded1, 1 mM ATP, 200 nM 5'ss-11 bp RNA; buffer, salt, pH and temperature not in the material. Table 1 and Figures 4-6 (duplex displacement/unwinding kinetics) left out as enzyme activity without a direct binding read-out
Settings: protein: recombinant; tags: His6 (pET22b); single strand

Chain of Ded1-His6 (Saccharomyces cerevisiae? (P06634 whole entry): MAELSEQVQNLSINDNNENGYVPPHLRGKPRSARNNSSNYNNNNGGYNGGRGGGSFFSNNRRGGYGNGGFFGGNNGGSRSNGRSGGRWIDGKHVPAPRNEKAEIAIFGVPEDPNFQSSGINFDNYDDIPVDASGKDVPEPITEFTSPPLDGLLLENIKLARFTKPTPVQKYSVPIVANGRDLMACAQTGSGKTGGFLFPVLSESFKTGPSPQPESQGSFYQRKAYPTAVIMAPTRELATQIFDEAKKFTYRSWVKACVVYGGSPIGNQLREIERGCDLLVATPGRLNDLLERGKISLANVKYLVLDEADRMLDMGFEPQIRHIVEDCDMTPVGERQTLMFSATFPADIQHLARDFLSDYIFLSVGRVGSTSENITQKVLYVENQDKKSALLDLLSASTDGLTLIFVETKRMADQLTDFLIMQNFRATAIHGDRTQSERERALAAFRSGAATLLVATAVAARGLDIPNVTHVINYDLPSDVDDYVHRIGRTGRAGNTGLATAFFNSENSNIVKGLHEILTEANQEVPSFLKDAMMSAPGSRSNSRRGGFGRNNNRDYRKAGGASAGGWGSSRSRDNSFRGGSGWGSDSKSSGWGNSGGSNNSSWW

UCAUACUUUUCUUUUCUUUUCCAUC (ssRNA) [ssRNA01 (RNA01)]: binds.

Source: publication PMC6468243, “Mechanistic characterization of the DEAD-box RNA helicase Ded1 from yeast as revealed by a novel technique using single-molecule magnetic tweezers”
